# Data taken from IntAct's records for PubMed 17675380.
# B1: Enterobactin synthase component B (Escherichia coli (strain K12)), P0ADI4 (parent)
# chain: MAIPKLQAYALPESHDIPQNKVDWAFEPQRAALLIHDMQDYFVSFWGENCPMMEQVIANIAALRDYCKQHNIPVYYTAQPKEQSDEDRALLNDMWGPGLTRSPEQQKVVDRLTPDADDTVLVKWRYSAFHRSPLEQMLKESGRNQLIITGVYAHIGCMTTATDAFMRDIKPFMVADALADFSRDEHLMSLKYVAGRSGRVVMTEELLPAPIPASKAALREVILPLLDESDEPFDDDNLIDYGLDSVRMMALAARWRKVHGDIDFVMLAKNPTIDAWWKLLSREVK
# partner: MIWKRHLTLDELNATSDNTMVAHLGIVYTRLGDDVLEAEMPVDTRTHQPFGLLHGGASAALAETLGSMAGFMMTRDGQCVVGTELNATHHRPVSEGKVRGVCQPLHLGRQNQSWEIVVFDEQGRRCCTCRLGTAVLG
# Variants of: B1
# Settings: with enth_ecoli entH
row,effect of a mutation on the interaction,Variant
1,decreasing interaction strength,MAIPKLQAYALPESHDIPQNKVDWAFEPQRAALLIHDMQDYFVSFWGENCPMMEQVIANIAALRDYCKQHNIPVYYTAQPKEQSDEDRALLNDMWGPGLTRSPEQQKVVDRLTPDADDTVLVKWRYSAFHRSPLEQMLKESGRNQLIITGVYAHIGCMTTATDAFMRDIKPFMVADALADFSRDEHLMSLKYVAGRSGRVVMTEELLPAPIPASKAALREVILPLLDESDEPFDDDNLIDYGLDAVRMMALAARWRKVHGDIDFVMLAKNPTIDAWWKLLSREVK [S245A]
